system: GST-CELF1 (recombinant human CELF1) (Homo sapiens); test: EMSA; conditions: 3 fmol RNA with increasing GST-hCELF1, 5% native polyacrylamide gel; buffer, salt, pH and temperature not given (cited ref 31)

Point of comparison: Srp14 3'UTR fragment, Kd 12.4 nM. Against it:
- 7SL RNA fragment (negative control) — higher, > 300 nM
- Srp9 3'UTR fragment — 15-fold lower, 0.84 nM
- Srp19 3'UTR fragment — 2.7-fold higher, 33.8 nM
- Srp54 3'UTR fragment — within 1.5-fold, 13.5 nM
- Srp68 3'UTR fragment — 7.6-fold lower, 1.64 nM
- Srp72 3'UTR fragment — 23-fold lower, 0.53 nM

— paper PMC5271678
